From publication PMC5269641

Columns and labels:
[1] = target: reaction center-light harvesting 1-PufX (RC-LH1-PufX) complex (Rhodobacter sphaeroides) (UniProt P0C0Y7); experiment: atomic force microscopy; tapping mode AFM of intact native chromatophore vesicles immobilised on mica; imaging buffer 300 mM KCl/20 mM MOPS pH 7.4, with and without 10 mM MgCl2; proteins in their native membrane
[2] = target: subunit of the light-harvesting 2 (LH2) complex (Rhodobacter sphaeroides); experiment: as above
[3] = target: subunit of the light-harvesting 2 (LH2) complex (Rhodobacter sphaeroides); experiment: atomic force microscopy; tapping mode AFM of reconstituted flat LH2 membranes (2D crystals) immobilised on a mica substrate, same approach as for chromatophores
[4] = target: subunit of the light-harvesting 2 (LH2) complex (Rhodobacter sphaeroides); experiment: as above; remark: listed apart in the source
[5] = target: subunit of the light-harvesting 2 (LH2) complex (Rhodobacter sphaeroides); experiment: atomic force microscopy; tapping mode AFM of intact native chromatophore vesicles immobilised on mica; imaging buffer 300 mM KCl/20 mM MOPS pH 7.4, with and without 10 mM MgCl2; proteins in their native membrane; remark: listed apart in the source

| stoichiometry N [1] | stoichiometry N [2] | stoichiometry N [3] | stoichiometry N [4] | stoichiometry N [5] | Substance |
| --- | --- | --- | --- | --- | --- |
| 2 | – | – | – | – | reaction center-light harvesting 1-PufX (RC-LH1-PufX) complex (from UniProt P0C0Y7 1-260; P13402 1-82) |
| – | 8.6 | 9 | 8.3 | 9 | subunit of the light-harvesting 2 (LH2) complex |
